Assay results from the DeepSol protein solubility set.

Experiment: soluble on expression in E. coli; label from the status in PepcDB or PDB records

Soluble on expression in E. coli, not soluble:
MGSDKIHHHHHHINKDNITTDTAEESKQQDSNKKQELPTATYMGGSNTITEVCDELGSAGASHVDTFKEWVTDFADSAGKNAKLKDTWSDAYKMKADTVKCMDGWEKKHDYSDADCRMTAFLLLDGLLHAQSTEDSYSGTYLMFDTEAIDNVDRYEIIRQNKDMFTTLYGEKSITDDKHPEKTFSDNWKKYGFQIDSNCISLISIAIYDPDSDAMFVGHTGVLIKYSDYYLFVEKIAFEQPYQATKVNNMDELLSILSLRPEYFGEEKEAGPFVYNNGDYVGTLELQG, MGSDKIHHHHHHISNNLANSSTIGYKTSNASFYSLVTGTGSTSNFTGAGVVASATQNVINQGVIVGTQNVTDLAVDGKGMFIVTDRSGSNELYYTRAGDFYPNADGDLVNSNNYYLQGYPTDRNGVPLTNTGNSGASLETINLAGATGAAKATSEMSIQAVLPAQATAGDSTAVPPVAAYTSSSDVEIYDSLGVAHTMTVKWTKMSDTKWTMTLYDPKLSSDMTGDATGAISSTTTGVTDVPANAGPPATSHGIAVDVEFTDQGLLKTPSVLALKITPDASNGTGAAISEIALNLGTAGKANGLSTYSNEDSDGKPAVDLKKVVQDGVTYGTYYSNTISKAGLVYANFTNGISYPIYQVPLAMFSNVNGLEAVSGTAYSATVKSGTPTYVTAGTGGSGGVSSGSVESSTVDTAAEFSKLIVSQQAYSAATQIISSNQEMFQNLISAKR, MGSDKIHHHHHHKDPVINDLKDSEGNNISFTLNAPNNSSYTLMPENASSIIDIFTCEQPDYGFAAGVTYTVQVCEGGTEFEKFESLPTTGSGEKVLIKTFELNDAMNNLGMVNPTVAYNVDFRLKAFINDSVPELYSNTVNMAITPYSGARTQVYFVGDIFDNGWNNNDPSMRIFADDDVNNMLFTYTGFVKAGSAFKIIQTPGDWGIQWGYDSDGALSNDGGSGNIEGFTQDGYYTITLDLAGNKYSIEPYTGATTEYKQISLIGDFNDWGGDLDLQQASYDKHIWIGEKIEIPSDGGLKLRADHDWAVSFGGSNSLWNDKQGQFAKFDGGDNVKVSAGTYFIKFNDLTKHIILLAE, MGSDKIHHHHHHKEKSTVAVLPFTVHSADNIDYVKQGISDMLTSRIAVEGKISVASKDLVQEAIKGRTTRDLTPEEMNALGKKLNVDYIVSGSITKIGNSLSIDGKLMDLAAARSTVGIFAQTQGLDEVIPKINDFSQRIVQHITGSTPSDFSSPAMELPAPSSAAAVADKPPQRSRESEIISGMRTSRKGTFTSIINPDFIDAARPLDRKGFWMSQKFPTEFRGMAIGDVNGDKLQEVVVIDRSNLYVYQRKGDDFKLLQKIPGKTHDNYLAVDVADINQNGIMEIFVTNMNRNTLASFVTEWQDGKYIQTAKDLRLFLRVIEPSIAAPQLLGQGFGLDNPFNTPIHEVIWDGKHYRAATRMKIPEGLSVYGLTLDDLGMGGSEKVISLDDYDYIRIYQQTEKPLSRLNVFGGSDELIWKSDEVFGGSNTYVEHAGSTVPGDEVRRTYINLRILTYDINKDGKKELILVKNLSAVGRVLKNVKLFTSSEVYNLEWDGLGLLENWKTRKINGYVADYQFKDIDNDGQNEIVLALVLSTGATLQNRSAFVAYKLSPQQ, MGSDKIHHHHHHKKVIKTMMIAGQDGSHYWRGACEAMKQILENSGMFKVDFVFTPDFGGDINTFKPDFAKYNLVVVNYGGEVWPEPVQKAFENYVADGGGVVIIHSSVVPMAGWKAYNEIIGMGAWEGRNEKDGPYLYWKEGKYVYDYTPGYAGYHGLQHETILEHRAPEHPILKGLPIRWKHFKDEIYTRLRGPVRNVEILATAYERGRHEPLMWTVKWGKGRVFVDLLGHCGNDPNMIYSMECTGFQVTLLRGAEWAATGEVTQEAPRDFPLEDTCTLRPEFKAPFHATN, MGSDKIHHHHHHKLFAAHGVDKVRLTGGEPTIRKDIVHIVEGISSTPGIKEVGITTNGLVLQRFLPQLRDAGLTKINISIDSLDREKFAKMTRRDGFDKVWKAIELARGYYPKVKLNVVVLKHQNENEVVDFVNLTKDRNLDVRFIEFMPFGGNEFKNDNFIGYREMLNLIVDKYGDGVIRLSDSPNDTTKAYKIDGFQGQFGFITSMSDHFCNTCNRLRITADGNL, MGSDKIHHHHHHLDELRSGLDKPSHFRLGLAMWSHSNWQESVYGHGIKQAERLARYATIFNTVEGNTSFYATPAQQTVMNWHSATPDDFRFTFKLPQTITHQRLLQHCGQELKDFFQVMAPLIDKTGIWKIQLPAHFGPENLPVLAQFLNQVPQGLTYGVEVRHAAFFAKGDAERALNRLLIDKKVNRIIMDSRPLFALPPSNAAIIDAHKKKPRVPVHAIATANNPVVRFIGQPDDAVAQLAQQGVSALPKNNDAFFDNWLAQLPLWLAEGREPYLFIHTPDNETAPELAIRLYQTLRSQIAAQIQLAELSLLEKIPEETSTQMGLAW, MGSDKIHHHHHHLDFRLLRYFVAVAEELHLARAAERLGIEQSPVSRAMRDLESQLGVQLFDRSTRLTRLTWAGQVFLGECRRVMATVEQAVKSAKAAAQGYQGHLRIAICDSLAQPRIATLLARSREEEPELEIRVFELPFAQQLKMLHDDLLDIGFALSNAVHDGLVAEPVWTDPLSVIVPARHPLLAHVQVPLPEALKFPLVLCHPESGSGCRHQIQALLQDAGTPLKLVDEVTSLGVMLTLVGAGYGIGFAIASQVQTLQRPDISIRPLAGTPPMLSTYLLRRRGEPSEPMRRFIERVKDGAAPVDDEPVL, MGSDKIHHHHHHLELSSHFTPEKIQVGISSCLLGQKVRFDGGHKNSYYCDVTLREHVEFVPVCPEMSIGLGAPRKSIRQVRDGDTLLIQSGDGSLDVTDKLNTFSQQKVAELDFLGGYILCAKSPTCGMERVTEYKIGTNNGSKAGVGVFAKVLMETYPHLPVEEEGRLNDLVLRENFITRLYAYHDWFSMLASGLTKHKLIQFHSRYKYLIMAHSPKWYRALGPILADIQDLSASADAYFDGFMTALKIKATRKNHTSTLQHIQGYFKKHLSAGQKQELSESIDKYRQGLLPLLVPITLINHYLREFPTPYIESQVYLNPHPEELKLRYAY, MGSDKIHHHHHHLGDHTLNQVTDTPLSQQHITQHTQVAPSRLAAAGLSASIMLLKRILKPFEHVQRHRHSWGQVIYASQGVLSVITPAGRYIVPPEQAVWVPPFVDHEVIALSQVQLSSLYLDDTQIGGFPPCCTCLNVKPVLQLLLQEVNAFMKSEAGLIDPDFKDSVMRLLMVIRDFMVLAPKVALDLPYPKDKKLLRITEALLADPSEQRTLVDWQREVGASARTLARLFKQQTGLSYSQWLQRLRLQVAIQMLSRGESVLTTALSLGYASGSAFGYMFRQLMGVAPSQYLLAQSTLPKVQCQK, MGSDKIHHHHHHLITVTDLSLQIGSRTLYSDVNLKFTPGNCYGIIGANGAGKSTFLKLLEGKMEPTTGSISMGPNERMSSLNQDHFAFEDFSVMETVIQGHQKLYQVMKERDALYAKADFSEEDGVKAAELETEFAELDGWNAEADAAQLLQSMSIPEDMHQKQMSELAESDKVKVLLAQALFGNPDTLLLDEPTNGLDVHTTAWLENFLADYENIVLVVSHDRHFLNQVCTQMCDVDRGQIKLYVGNYDFWYESSKLATELARQQNAKKEEQIKQLQEFIARFSANASKSKQATSRKKQLDKISLDDIKPSSRKYPYIKFEMNRDLGNDLLRVDNVSYKSGDEQLLDNVSFIIRPGDKVAFLSRNTRATTALMEIIAGRLEPDSGTVTWGQTTSFNYMSRDLNANFDNDELTILDWLRQYADKEHDDNTFLRGFLGRMLFSGDEINKQIKVLSGGEKVRCQLSRMMLEAANVLVMDDPTNHLDLESITALNEAMENYPGSILFTSHDHEFIQTIANHIIEVGPKGVVARADISYDDFLAHPTVQEQVAKIY, MGSDKIHHHHHHLIYDVVIAGGGPVGLFLACELRLAGLPVLVLEQAEDPGSPLKRLPFGLRGLSAPTLEAFYRRGMLNEIAAPQRAKDDSGSSVPNAAHWMQQQRRPGGHFAGIQFYYDNIDTSKWPYRLPGPAGTSMAVEMEHIESVLTARAIALGVEIRRGLSVDGFDQSEEGVTVHAGSEIFRGRWLVGCDGGRSTVRRIGGFDFVGTDPEFTGYSVQVEMADPEKLKPGRHYTPTGMYTYQKPGTIAMVDFDGGAFHRTQPITLDHVQAVLRHISNTDVTVTALQLATTWTDRAYHATTYRKGRVLLAGDAAHIHSPLGGQGLNLGLGDAMNLGWKLAATVRDDAPAGLLDSYTSERHPVGAQVLDWSRAQVAIMRPSRSSRALEAIMRDLIDTRDGATYFAERVWGTALRYDLGSSHTLVGRSAPDFELIDGTRLGELFTKGRGLLLDFDALPSLQALASRWSDRITYVASDVKDRLGVSAVLVRPDGFVAWAGEASPNHDEATQAASQWFGKPEEEGRSPA, MGSDKIHHHHHHLLVKRARLIVGNCWYLLHRIPVEIKDNSQYDIKLSDFGLSEFAESAKFDPVLCGTGPYMSGYRLEGVQGYQHSYVDDVWALAVCLFFLLYNEWPFRKRDGNVKDLLGFDPSQMWVPFPQGCRITAKRVGQGLIIENVNWPDASGDFSNYKGYDLLSYVKDQSVLEFSKVGGEIYEFRAGDDVEQINHQMNAALTEHECFIRFPGQEEDRKRRFRNEVLAGIREYWIQSDIEYGSGTRKQDLLESLATGSTEHSILQKLRVLPAYKSARKRSAEQSELGMLSFGLSGILKNSK, MGSDKIHHHHHHLNAKIVCVSNKQLTISLDDFSGPLDLLLHLIRTQELDIFDLPIAKVTDQFLSFIDNQLNPSLDSAGEYLYMASTLIRIKSRFLLPTVKNEQEDEKEEDPRNELVNALIEYECYQAVTQDMSELEHSRSLSFTRPVAKIPENIEIKPLSAGVTLQDLQKAFLEIANRQKDLHPKKRTIERENFSVADKINEIKTFFGQKKLDSKIEFQYLFKLSSSNDEMITTFLAILELAKDHFILLSQNDEQQIFLTKGEMNA, MGSDKIHHHHHHLNIAVNTRLLLEDRLEGIGWFTYETLKRITEQNPQHTFHFFFDRPYNDKFVFGKNVVPHVLFPQARHPFLWYIFFEWSIPFMLRKVKADAFISTDGYMPKSSKVKVLNVIHDINFEHRPQDLPKRVANYYKKNMPLFAQKATRLATVSEFSKQDLVKTYNIPADKIDVVYNGCNAAFKPIPEAEQVKVRYKHSAGRPFFLYIGSMHPRKNILNLMKAFEVFKKMTNCDMKLLLVGKAMWSNKDIQSLYHTLIYRHDIHFLGHIKTAELARIMASAHALTFVPYFEGFGIPILEALNCGVPVITSNTTSLPEVAGKAALLVNPESSEAIANAMIQIYKAPHIREKLLAQGVIQRQKFSWDKTAALLWASFEKMMR, MGSDKIHHHHHHLPQLLSAMRGPGTRSPDMPYARKTLAQIRSDAMADIAAALQGSDPLLRFAALKIIGVVLAGMTNEEYGYLDWIAKQTNPFTADDEYLEAWGALKKVYRKDASAASLSATFTGVAGKLLDDGTPVVRSDGATYTTSGTQTVVGTSVTVTIVADVAGAAGNADPGTVVALDIAVDGIQSTGAVIGTVSSGADIEDQEDYRARVLAKYQQPPQGGAAPDYVEWATDVAGVTRAWCAPNGFGAGTVVVYVMLDDAQAAHGGFPQGTDGVSQHDQGPGGLPRGTVATGDQLVVADAIVTLQPGTALVWICSPVENVLSFELTGSAGWSTAIRNAVKAQISDVFFRNGDPRGGTIDRSDINSAIAAVPGTAGFVITSITGVISGTPTTYPANITGSFGSLPVLGEVTFG, MGSDKIHHHHHHLRNVLPKDALLTAVDISDSMMDVARAKFLPHEQVTFQVADATTLPFENEAFDAVVCQFGVMFFDKDTAFREAYRTLGRGGRYLFSVWDSRRYNPFASLAFEVLKQFFPLNPPRFLEAPVSSFEIDPIKEALIQSGFERIVISVQGREHDILDVRTFARGLVFSPVIEEIRERGGVEPEDIIAALAEALKREYGSRPTRYPMQAILFEAEKP
